B2: Atg17 (K. lactis) (natural protein, Kluyveromyces lactis, UniProt Q6CS99 1-423, looked up)
chain: MSDAATTIPSDEIDKLWNKARNQLVEAQVECEESLKILSKVRTEMDSSQKSRFKLKFILNCLVNQVEFFKNIMLEKCISTELIDNEWSKLVLVEIVNDVSYWQNEITTKMKILQGTKYDLTDDHSSLSDFICMDHVDILQQKIDEIPIIKQQVTNIRQHYKSIKDRIENQLVAVKLKKLRTYFDSHFSRDSKNNLFKLLESDYVTELNEFENELADFLRSITDHFDKCTILKEQQIPLPDLKELFQIVKKDDTQLENIRELVFETGLEVKAFSKKVNETISEIMDKIGGFHLLASKIVTELEKCEEYLSIFQKIANLVFVYKESCIKKIEQVQQLCEFYDKFKLGYKNLLRERDRRKATALQMEKILKECQEKLQALSDADLDQRQQFLLENGDYLPENIWPGYIDDMESMYSFEYSIHNVPN

What was measured:
Assay in all cases: SAXS
[1] = biological target: Atg17-Atg31-Atg29_(1-85) subcomplex from Kluyveromyces lactis (dimeric double crescent) (Kluyveromyces lactis) (UniProt Q6CS99)
[2] = biological target: Atg1 minipentamer: Atg1EAT-Atg13_(350-525)-Atg17-Atg31-Atg29_(1-85) (K. lactis) (Kluyveromyces lactis) (UniProt Q6CSX2)
[3] = biological target: B2
[4] = biological target: the molecule itself
[5] = biological target: the molecule itself; remark: listed apart in the source

Molecule: Atg17-Atg31-Atg29_(1-85) subcomplex from Kluyveromyces lactis (dimeric double crescent) (from UniProt Q6CS99 1-423; Q6CTU8 1-85)
- stoichiometry N [1]: 4

Molecule: Atg1 minipentamer: Atg1EAT-Atg13_(350-525)-Atg17-Atg31-Atg29_(1-85) (K. lactis) (from UniProt Q6CSX2 562-831; Q6CWK2 350-525; Q6CS99 1-423; Q6CTU8 1-85) (complex)
- stoichiometry N [2]: 4

B1: Atg13 residues 350-525 (K. lactis) (domain or fragment, Kluyveromyces lactis, UniProt Q6CWK2 350-525, looked up)
chain: AALKVQRGSAGSTIVNGDVPPELSSVGSGSKYSSSFGRIRRHSSIRRSESFDRTAKPRKSTENPPEDLLEFVKLLEDKKELNMKPNTILPQQDISNSLMRFQSMKSNNDALSDNLSMSMSIDQPNVRFGSNSHSPIPSFSPNYGSIPSRLSQGSRNNSNAELITSRKSSLDRHKHN
- binding result [3]: binds

Molecule: B2
- binding result [4]: binds

B3: Atg1 EAT domain (K. lactis Atg1 residues 562-831) (domain or fragment, Kluyveromyces lactis, UniProt Q6CSX2 562-831, looked up)
chain: DSNITPAVESLAAKAFVMYSFAEMKFSQILPTPPSSTDYDPLSDKRLSNGSCAIEDEEDLDQGRPPSNQTLTSATTKISSATNVDTQIPAPELKKLCTESLLLYLKALTILAASMKLTSKWWYENESKNCTLKLNILVQWIRDRFNECLDKAEFLRLKLHAINTSPNSQWSDDDPVIFVEKLIYDRALDISRNAARMEMESGNYNTCELAYATSLWMLEILLDENFQFNEVYDDEYASNITSLDESDKEMIKKYISSIANRLKALKSKMV
- stoichiometry N [5]: 2
